Experimental data taken from patent publication US20210188980A1 (SHANGHAI EPIMAB BIOTHERAPEUTICS, published 2021).

Columns and labels:
[1] = molecular target: T1, human LAG-3 expressed on cells (human, UniProt P18627 23-525); test: cell-based or functional assay
T1 sequence (looked up): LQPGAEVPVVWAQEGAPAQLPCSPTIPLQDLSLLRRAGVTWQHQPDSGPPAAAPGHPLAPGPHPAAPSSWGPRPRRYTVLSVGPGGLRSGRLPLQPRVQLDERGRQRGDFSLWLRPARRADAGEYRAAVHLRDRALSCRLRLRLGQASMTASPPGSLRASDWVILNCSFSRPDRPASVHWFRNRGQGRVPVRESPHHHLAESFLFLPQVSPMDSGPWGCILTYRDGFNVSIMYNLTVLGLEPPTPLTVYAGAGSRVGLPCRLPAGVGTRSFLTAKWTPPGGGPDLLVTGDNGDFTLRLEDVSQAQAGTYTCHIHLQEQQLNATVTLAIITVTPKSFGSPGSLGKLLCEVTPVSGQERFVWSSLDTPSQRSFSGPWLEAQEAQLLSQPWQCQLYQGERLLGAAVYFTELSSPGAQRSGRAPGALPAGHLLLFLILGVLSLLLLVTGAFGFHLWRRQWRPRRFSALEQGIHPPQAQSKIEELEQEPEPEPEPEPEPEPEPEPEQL

[2] = molecular target: T2, cynomolgus LAG-3 expressed on HEK 293F cells (cynomolgus); test: FACS, HEK 293F cynoLAG-3 cells
T2 construct: whole, on cells
Description: (§1) FAGS analysis was performed using methods similar to Example 1.4, above, except that stable HEK 293F cell lines expressing either human LAG-3 cynomolgus LAG-3 were used. LAG-3 expressing cells were charged at 2×10⁴ cell per well into 96-well assay round-bottomed assay plates (Cat. No. 3799; Corning) and stained with purified anti-LAG-3 antibodies. LAG-3 antibodies were detected with AlexaFluor® Donkey anti-Mouse Ig (H+L) Highly Cross-Adsorbed Secondary Antibody (Cat. No. A21202; Invitrogen), and cell fluorescence was monitored using a flow cytometer. The data were processed by GraphPad software, and EC50 values were calculated.

[3] = molecular target: T3, human LAG-3 ECD/Fc fusion protein (human); test: ELISA, coated huLAG-3 ECD/Fc
T3 construct: also called HuLAG-3 ECD/Fc
Description: The supernatants of hybridoma clones were primarily screened by ELISA. Briefly, 50 μl/well of […] human LAG-3 ECD/Fc in NaHCO₃ were directly coated in each well of 96-well plate overnight. Plates were washed 3 times with 1×PBST, 300 μl per well. After blocking with 1% BSA in PBST at 250 μl per well and incubating at room temperature for 1 hour, the hybridoma supernatants were added at 50 μl per well and incubated at 37° C. for 1 hour. After washing, an HRP-linked goat anti-mouse IgG Fc secondary antibody (Cat. No. A0168, Sigma) was added at 100 μl/well and the plates were incubated at room temperature for 1 hour. TMB reagent (InnoReagents) was used to detect and develop the ELISA signal at 100 μl/well for 15 minutes, the reaction was stopped with 1 Normal HCL. The plates were read with a plate reader (SpectraMax® M5e, Molecular Devices, USA) at a wavelength of 450 nm. The ELISA-positive antibody producer clones were further verified by FACS analysis using methods similar to Example 1.4, above, except that stable HEK 293F cell lines expressing either human LAG-3 or cynomolgus LAG-3 were used. Hybridomas producing LAG-3 binding activity were selected and further characterized in a receptor blocking assay (RBA).
A binding ELISA was performed in the same way as described in Example 7.2 above. Each purified antibody was 10-fold serially diluted. After blocking of a 96-well assay plate with wells containing immobilized LAG-3 ECD/Fc fusion protein targets, the purified antibody samples with diluted concentrations were added to wells of the assay plate. The HRP-linked anti-mouse IgG antibody (A0168, Sigma) and TMB reagent were used to detect and develop the ELISA signal, which were read on a SpectraMax M5e plate reader at wavelength of 450 nm. Curves were fitted using GraphPad software, and EC50 values were calculated. Similarly, a RBA was also performed as described in Example 7.3 with titrated, purified antibodies, and maximum inhibition percentages and IC50 values were determined.

[4] = molecular target: T1, human LAG-3 expressed on cells; test: FACS, HEK 293F huLAG-3 cells
Description: as §1

[5] = molecular target: T3, human LAG-3 ECD/Fc fusion protein; test: FACS RBA, huLAG-3 ECD/Fc on Raji; competitor MHC Class II
Description: Supernatants displaying LAG-3 specific activity were tested for the ability to block LAG-3 receptor binding to MHC Class II. Raji human B cell lymphoblasts express high levels of MCH Class II and were used as binding targets for LAG-3 ECD/Fc proteins described above. Briefly, Raji cells were harvested and resuspend in FACS buffer and plated in 96-well plates (2×10⁵ cells/well). Anti-LAG-3 hybridoma supernatants were mixed with soluble LAG-3 ECD/Fc and the mixture was added to wells at a final volume of 100 μl/well. After adding the mixture to cells, the plates were incubated at room temperature for 30 minutes. After washing twice with PBS, the cells were incubated with anti-human IgG Alexa Fluor® 488 secondary antibody at 4° C. for 1 hour, washed twice with PBS, then fluorescence was measured on a flow cytometer.
Purified anti-LAG-3 antibodies also were tested in a RBA in the same manner as described in Example 7.3. Antibodies were also tested in an antigen-specific T cell activation assay, as follows: A huLAG-3 expressing murine T hybridoma cell line was generated to order by ChemPartner (Shanghai, CN). Mouse splenocytes from the same strain of mice were used as effector cells. The hybridoma expressing the huLAG-3 receptor protein is capable of binding to MHC Class II-positive mouse splenocytes, with inhibitory effect via engagement of Class II. The assay tests for anti-LAG-3 antibody-mediated reversal of the inhibitory effect, as measured by increased production of IL-2. Mouse spleenocytes were harvested from 6-8 week-old female C57BL/6 mice, red blood cells were lysed using Red Blood Cell Lysis Buffer (Sigma-Aldrich; R7757) according to the maker's instructions. Next, 50 μl T hybridoma-huLAG-3 cells (2×10⁶ cells/ml) were seeded in each well of a 96-well culture plate, and then a series of anti-LAG-3 monoclonal antibodies in solution at 50 μl/well were added and incubated at 37° C. for 30 min. Mouse splenocytes (4×10⁶ cells/ml) and the antigen (20 μg/ml) were mixed and incubated at 37° C. for 30 min. The mixture (100 μl/well) was added into each well that was already seeded with T hybridoma-huLAG-3 cells and anti-LAG-3 mAbs. The mixture of antibodies, T hybridoma-huLAG-3 cells, mouse splenocytes, and the antigen was cultured for 3 days.

[6] = molecular target: T4, recombinant human LAG-3-his protein (Novoprotein) (human, UniProt P18627 23-450); test: BLI Octet, Ab on AHC sensor, huLAG-3-his; test group 4
T4 construct: Bought; also called huLAG-3; not shown: His tag
T4 sequence (looked up): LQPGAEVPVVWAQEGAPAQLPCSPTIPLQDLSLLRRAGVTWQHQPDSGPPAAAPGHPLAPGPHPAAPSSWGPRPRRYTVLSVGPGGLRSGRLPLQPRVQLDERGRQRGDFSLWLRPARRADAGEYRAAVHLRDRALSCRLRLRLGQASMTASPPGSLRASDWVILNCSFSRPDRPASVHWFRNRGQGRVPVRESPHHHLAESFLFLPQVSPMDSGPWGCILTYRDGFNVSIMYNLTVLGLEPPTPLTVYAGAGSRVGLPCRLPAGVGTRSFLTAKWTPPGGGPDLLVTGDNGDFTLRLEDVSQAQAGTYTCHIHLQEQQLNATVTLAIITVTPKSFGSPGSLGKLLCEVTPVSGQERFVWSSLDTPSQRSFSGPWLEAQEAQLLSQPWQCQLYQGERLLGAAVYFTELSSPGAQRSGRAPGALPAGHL
Description: (§2) All 18 humanized antibodies (Table 34) and a chimeric antibody having the parental murine VH and VL domains (mAb747c) were ranked by dissociation rate constant (koff). Briefly, antibodies were characterized for affinities and binding kinetics by Octet®RED96 biolayer interferometry (Pall ForteBio LLC). Antibodies were captured by Anti-hIgG Fc Capture (AHC) Biosensors (Pall) at a concentration of 100 nM for 30 seconds. Sensors were then dipped into running buffer (1× pH7.2 PBS, 0.05% Tween 20, 0.1% BSA) for 60 seconds to check baseline. Binding was measured by dipping sensors into a single concentration of recombinant human LAG-3-his protein (Novoprotein). Dissociation was followed by dipping sensors into running buffer for 1200 seconds. The association and dissociation curves were fitted to a 1:1 Langmuir binding model using FortéBio Data Analysis software (Pall). In each test group, the off-rates of antibodies were able to be compared with that of mAb747c. The off-rate ratios were calculated by the off-rate of antibody to that of mAb747c of its group and were compared all together. The lower the ratio was, the higher was the affinity of the antibody.

[7] = molecular target: T4, recombinant human LAG-3-his protein …; test: BLI Octet, Ab on AHC sensor, huLAG-3-his; test group 2
Description: as §2, with “9” for “18”, “25)” for “34)”, “Octet RED96” for “Octet®RED96”, “FortéBio” for “ForteBio”, “Anti-HIgG” for “Anti-hIgG”, “(Pall).” for “(Pall). In each test group, the off-rates of antibodies were able to be compared with that of mAb747c. The off-rate ratios were calculated by the off-rate of antibody to that of mAb747c of its group and were compared all together. The lower the ratio was, the higher was the affinity of the antibody.”
The seven Fab clones were converted to full IgG proteins. Briefly, the VH and VL genes were produced synthetically and then cloned into vectors containing coding sequences for the human IgG1 and human kappa constant domains, respectively. The heavy chain and cognate light chain plasmids were co-transfected into HEK 293E cells, individually. After approximately six days of post-transfection cell culture, the supernatants were harvested and subjected to Protein A affinity chromatography. The affinity of purified antibodies was ranked by Octet® RED96 biolayer interferometry (see, Example 9.1, supra).

Row | Max IL-2 [1] | EC50 [2] | Max-MFI [2] | EC50 [3] | EC50 [4] | Max-MFI [4] | IC50 [5] | Max. Inhib. (%) [5] | koff [6] | off-rate ratio to that of mAb747c [6] | koff [7] | off-rate ratio to that of mAb747c [7] | Binder
1 | 539 pg/mL | 79.6 nM | 31.9 MFI | 0.24 nM | 13.4 nM | 73.1 MFI | 4.8 nM | 96.1% | – | – | – | – | mAb748 (antibody, V domains shown, murine hybridoma anti-LAG-3 mAb) VH: EVQMQQSGAELVRPGASVKLSCTVSGFNIKDDYMHWVKQRPEQGLEWIGWIDPENGDTEYASKFQGKATITADTSSNTAYLQLNSLTSEDTAVYYCTYFDYWGQGTTLTVSS VL: not shown
2 | 733 pg/mL | 56.4 nM | 48.5 MFI | 0.22 nM | 2.8 nM | 103 MFI | 3.84 nM | 96.5% | – | – | – | – | mAb742 (antibody, V domains shown, murine hybridoma anti-LAG-3 mAb) VH: QGQLQQSGAELVRPGASVTLSCKASGYTFNDYEMHWVKQTPVHGLEWIGAIDPETGGTAYNQKFKGKAILTADKSSSTAYMELRSLTSEDSAVYYCIRWGSTVFPYWGQGTLVTVS VL: DGVLTQTPLSLPVNIGDQASISCKSTKSLLNSDGFTYLDWYLQKPGQSPQLLIYLVSNRFSGVPDRFSGSGSGTDFTLKISRVEAEDLGVYYCFQSNYLPWTFGGGTKLEIK
3 | 612 pg/mL | 67 nM | 37.8 MFI | 0.19 nM | 9.5 nM | 135 MFI | 10.8 nM | 96.5% | – | – | – | – | mAb744 (antibody, V domains shown, murine hybridoma anti-LAG-3 mAb; also called rnAb744) VH: QVQLQQSGAELVRPGTSVTLSCKASGYTFTDYEMHWMKQTPVHGLEWIGAIDPATGGTAYNQKFKGKAILTADKSSSTAYMDFRSLTSEDSAVYYCIRWGTTVFPYWGQGTLVTVS VL: DVVLTQTPLSLPVNIGDQASISCKSTKSLLNSDGFTYLDWYLQKPGQSPQLLIYLVSNRFSGVPDRFSGSGSGTDFTLKISRVEAEDLGVYYCFQSNYLPWTFGGGTKLEIK
4 | – | – | – | – | – | – | – | – | 0.0012 s⁻¹ | 226% | – | – | HumAb747-59 (antibody, human IgG1, V domains shown, humanized mAb747; human IgG1/kappa constant domains) VH: EVQLVQSGAEVKKPGATVKLSCTASDFNIKDDYMHWVKQRPEQGLEWIGWIVPENGNTEYASKFQGRATITADTSTNTAYLELSSLRSEDTAVYYCTVYGDYWGQGTTVTVSS VL: DIQMTQSPSSLSASVGDRVTITCRASQEISGYLSWLQQKPGGAIKRLIYAASTLDSGVPSRFSGSRSGSDYTLTISSLQPEDFADYYCLQYASYPLTFGQGTKLELK
5 | – | – | – | – | – | – | – | – | – | – | 0.0026 s⁻¹ | 160% | D1-70-IgG (antibody, V domains shown, human IgG1/kappa constant domains) VH: EVQLVQSGAEVKKPGASVKVSCKASGFNIKDDYMHWVRQAPGQGLEWIGWIVPRNGNTMYASKFQGRVTITADTSINTAYMELSRLRSDDTAVYYCTVYGDYWGQGTTVTVSS VL: DIQMTQSPSSLSASVGDRVTINCRASQEISGYLSWLQQKPEGTIKRLIYAASTLDLGVPSRFSGSRSGSDYTLTISSLQPEDFATYYCLQYASYPLTFGGGTKVEIK
